# Test results from patent US11932880B2, “Enzyme and method for assaying pentosidine using same” (priority 2018, dated 2024).
# B1: PenOX2: protein having the amino acid sequence of SEQ ID NO: 4, pentosidine oxidase from Sarocladium sp., gene g10122; recombinant from Aspergillus sojae (protein, listed as Sarocladium sp.)
# chain: MFTPKAWIPLLALSREVFSNPTSASHSISFHGLLGVSSESVHNIHLTYGDAFPHGDFRVVFGDCGMTSEDELHHEVASLSTKMESAPDRLVWLVPKDVRENGCLHAFSEGVLLGRSEPVAFTEPLRKRESLSEIGDSDGLWFSGIRYLQSSNLTSVKAAEAKEKKIGIVGGGISGLMTSLLLTSVGMTNWHIIEATERVGGRIRTKYMNGTSPDDYQYQEMGPMRFPVEVKYNDTNETLPIQDHKMVFQLAEVLNEMNGNDTDLAVKFIPWTQNNPNTPANSRGYRLPDGRIPTAAQIAQNPSILPAAANASDPQDAELGKESLERLSDLTPERMRNISANIFKAHRDAIDRGLFHWSEAAYLRYQLGLDDDTVDFVAASDNYPMFPDWWHAVYFAATKWLTIDKGLDSLSRAFVPHVKDKITYGRKIEAMQWNESTSKISLSWRESPLAAAKSDEYDYAVVAVPFSKVRLWKRPAYSNLLTRAIGKLNYEQACKVALLYETRFWEHQEIPIFGGCGSVDIPGIGGVCYPSYEINSTRPGVILSSYITGTEARSVVALSEEDHVAMVQRAMVEVHGPMADEQWTGIYDRLCWEVDENAAGGWASPTVGQQELFIPAYHKTELNTIFIGEHTSITHGWIFSALESSVRGTTQLLLDLGLVDEAKQIVETWMARWITV
# Legend:
# [1] = Measurement of L-arginine oxidation activity of hypha extract; format: biochemical; details: intracellular recombinant PenOX2 after anion exchange and ultrafiltration concentration
# Procedure: 200 μL of each crude enzyme solution was mixed with a 380 μL of 150 mM potassium phosphate buffer solution (pH 7.0) in which 7.1 U/mL peroxidase, 0.70 mM 4-aminoantipyrine and 0.79 mM TOOS were dissolved. The resultant mixture was incubated at 37° C. for 5 minutes, and 20 μL of a 60 mM L-arginine solution was added thereto, followed by stirring, and reacting at 37° C. for 5 minutes. A change over time of A555 during the reaction was measured using a spectrophotometer (U-3900, manufactured by Hitachi High-Tech Science Corporation). A control experiment was performed by adding 20 μL of ion-exchanged water instead of 20 μL of the 60 mM L-arginine solution. An amount of the enzyme generating 1 μmol of hydrogen peroxide per minute at 37° C. was defined as one unit (U), and the activity was calculated in accordance with the following equation: Activity (U/mL)={(ΔAs−ΔA0)×0.6×df}/(39.2×0.5×0.2) • ΔAs: change of A555 per minute of reaction solution • ΔA0: change of A555 per minute of control experiment • 39.2: millimolar absorbance coefficient (mM^−1·cm^−1) of quinoneimine pigment generated through reaction • 0.5: molar number of quinoneimine pigment generated by 1 mol of hydrogen peroxide • 0.6: volume (mL) of whole reaction solution • df: dilution factor • 0.2: volume (mL) of enzyme solution
# [2] = Range of stable pH of PenOX2 (residual activity after 25° C., 20 hours); format: physicochemical
# Procedure: (§1) 600 μL of an arbitrary buffer, 400 μL of deionized water solution in which 3.99 U/mL peroxidase, 1.8 mM 4-aminoantipyrine and 2 mM TOOS were dissolved, and 150 μL of deionized water were incubated at an arbitrary temperature for 10 minutes. Then, 50 μL of the enzyme solution having been stored on ice and 400 μL of a solution of 4 mM pentosidine dissolved in a 100 mM potassium phosphate buffer (pH 8.0) having been incubated at an arbitrary temperature for 10 minutes were added thereto, followed by stirring and reacting at an arbitrary temperature for 3 minutes. A change over time of A555 during the reaction was measured using a spectrophotometer (U-3900, manufactured by Hitachi High-Tech Science Corporation). An elapsed time from the start of the measurement of 20 seconds to 60 seconds—A555 change was regarded as an activity value.
# Treatments were performed respectively using, as a buffer solution, a 100 mM citric acid-200 mM potassium phosphate buffer (pH 3.0 to 6.5), a 200 mM potassium phosphate buffer (pH 6.5 to 8.0) and a 200 mM glycine buffer (pH 8.0 to 10.0) at respective pH and at 25° C. for 20 hours, and then, residual activity of PenOX2 was measured.
# [3] = Enzyme activity measurement with pentosidine as substrate (A555 change, U/mL); format: biochemical
# Procedure: as §1
# Besides, an amount of the enzyme generating 1 μmol of hydrogen peroxide per minute at 37° C. was defined as one unite (U), and the activity was calculated in accordance with the following equation. Activity (U/mL)={(ΔAs−ΔA0)×1.6×df}/(39.2×0.5×0.05) • ΔAs: change of A555 per minute of reaction solution • ΔA0: change of A555 per minute of control experiment • 1.6: volume (mL) of whole reaction solution • df: dilution factor • 39.2: millimolar absorbance coefficient (mM^−1-cm-1) of quinoneimine pigment generated through reaction • 0.5: molar number of quinoneimine pigment generated by 1 mol of hydrogen peroxide • 0.05: volume (mL) of enzyme solution
# A 50 mM citric acid-100 mM potassium phosphate buffer (pH 4.0 to 7.5, a final concentration), a potassium phosphate buffer (pH 6.5 to 8.0, a final concentration of 100 mM), and a glycine buffer (pH 8.0 to 11.0, a final concentration of 100 mM) were prepared, and these were used to perform an enzymatic reaction at respective pH at a temperature of 37° C. […] Therefore, it was determined that the optimum pH of PenOX2 is pH 6.5 to 8.0, and that the most suitable optimum pH is pH 7.5.
# A potassium phosphate buffer (pH 7.5) having a final concentration of 50 mM was used to perform the activity measurement of PenOX2 at various temperatures. The highest activity was obtained around 50° C., and a temperature range for attaining 80% or more of this highest activity was 37° C. to 50° C. Therefore, it was determined that the range of the optimum temperature of PenOX2 is 37° C. to 50° C.
# The above-described activity measurement method was employed to perform activity measurement using a potassium phosphate buffer (final pH in the activity measurement: pH 7.5, final concentration of 50 mM) at 37° C., and an activity value (U/mL) was obtained by using the aforementioned equation.
# As described above, both PenOX1 and PenOX2 had the pentosidine oxidase activity. […] Subsequently, the following three enzymes were purchased, and the above-described activity measurement method was employed for confirming their pentosidine oxidase activity using a potassium phosphate buffer (pH 7.5, final concentration of 100 mM) at 37° C. The amino acid sequence homologies with PenOX1 and PenOX2 and the pentosidine oxidase activities of these enzymes were as follows.
# [4] = Pentosidine quantitative test (DA-67/peroxidase, A658, Bio Majesty JCA-BM1650); format: biochemical; details: 0.2-4.0 μM pentosidine solutions, 37° C., 5 minutes; ΔA658 correlated with final pentosidine concentration (FIG. 4)
# Procedure: The following reagents were prepared to measure pentosidine by using Bio Majesty JCA-BM1650 (manufactured by JEOL Ltd.).
# 0.2 μM, 0.4 μM, 0.6 μM, 1.0 μM, 2.0 μM or 4.0 μM pentosidine solution
# 25 μL of the sample was added to 50 μL of the first reagent, and the resultant was incubated at 37° C. for 5 minutes. Then, 25 μL of the second reagent was added thereto to allow a pentosidine oxidation reaction owing to PenOX2 and a detection reaction for hydrogen peroxide generated through the reaction to proceed at 37° C. for 5 minutes.
# In the detection reaction for hydrogen peroxide, simultaneously with consumption of […], DA-67 is oxidized into methylene blue to present the color, and the absorbance (A658) is increased. As an example, the relationship between the elapsed time after the mixture of the sample (4.0 μM pentosidine solution) and the first reagent and the absorbance (A658) is shown in FIG. 3. It was confirmed that A658 increased immediately after the addition of the second reagent containing PenOX2.
# Subsequently, an A658 increment (AA) caused by the oxidation of pentosidine was calculated in accordance with the following equation: ΔA=(absorbance 5 min after addition of second reagent)−(absorbance immediately before addition of second reagent×0.75)
# [5] = Thermal stability of PenOX2 (residual activity after 10 minutes treatment); format: physicochemical; details: treated 10 minutes at respective temperatures; residual activity measured at pH 7.5, 37° C.; FIG. 9
# Procedure: as §1
# Residual activity obtained when the enzyme solution was treated for 10 minutes at respective temperatures was evaluated by performing the activity measurement described above by using a potassium phosphate buffer (final pH in the activity measurement: pH 7.5, final concentration of 100 mM) at 37° C.
molecule,measurement,setting,value
B1,L-arginine oxidation activity of concentrate of purified PenOX2 solution,[1],24 U/mL
same,residual activity relative to PenOX2 stored at 4° C.,"[2]; pH range 4.0 to 9.0, FIG. 10",≥ 60%
same,residual activity relative to PenOX2 stored at 4° C.,"[2]; pH range 4.5 to 7.5, FIG. 10",≥ 90%
same,pH of highest activity (most suitable optimum pH),"[3]; 37° C., FIG. 7",7.5 pH
same,activity relative to highest activity,"[3]; at 37° C. to 50° C., pH 7.5",≥ 80%
same,activity relative to value in potassium phosphate buffer of around pH 7.5,"[3]; at pH 6.5 to 8.0, 37° C.",≥ 70%
same,Km,"[3]; pH 7.5, 50 mM potassium phosphate, 37° C., Lineweaver-Burk plot, FIG. 11",140 µM
same,specific activity against pentosidine,"[3]; pH 7.5, 50 mM, 37° C., protein by Bradford method",29.1 U/mg
same,activity value against pentosidine,"[3]; potassium phosphate buffer pH 7.5, 50 mM, 37° C.",7.8 U/mL
same,temperature of highest activity,"[3]; potassium phosphate buffer pH 7.5, 50 mM, FIG. 8",around 50 °C
same,pentosidine oxidation activity,[4],exhibits the pentosidine oxidation activity
same,temperature up to which enzyme was stable,[5],about 30 °C
